target: LDL receptor (cell surface) (UniProt P01130); experiment: other, cell binding, total binding double reciprocal plot
Sequence (P01130 22-788): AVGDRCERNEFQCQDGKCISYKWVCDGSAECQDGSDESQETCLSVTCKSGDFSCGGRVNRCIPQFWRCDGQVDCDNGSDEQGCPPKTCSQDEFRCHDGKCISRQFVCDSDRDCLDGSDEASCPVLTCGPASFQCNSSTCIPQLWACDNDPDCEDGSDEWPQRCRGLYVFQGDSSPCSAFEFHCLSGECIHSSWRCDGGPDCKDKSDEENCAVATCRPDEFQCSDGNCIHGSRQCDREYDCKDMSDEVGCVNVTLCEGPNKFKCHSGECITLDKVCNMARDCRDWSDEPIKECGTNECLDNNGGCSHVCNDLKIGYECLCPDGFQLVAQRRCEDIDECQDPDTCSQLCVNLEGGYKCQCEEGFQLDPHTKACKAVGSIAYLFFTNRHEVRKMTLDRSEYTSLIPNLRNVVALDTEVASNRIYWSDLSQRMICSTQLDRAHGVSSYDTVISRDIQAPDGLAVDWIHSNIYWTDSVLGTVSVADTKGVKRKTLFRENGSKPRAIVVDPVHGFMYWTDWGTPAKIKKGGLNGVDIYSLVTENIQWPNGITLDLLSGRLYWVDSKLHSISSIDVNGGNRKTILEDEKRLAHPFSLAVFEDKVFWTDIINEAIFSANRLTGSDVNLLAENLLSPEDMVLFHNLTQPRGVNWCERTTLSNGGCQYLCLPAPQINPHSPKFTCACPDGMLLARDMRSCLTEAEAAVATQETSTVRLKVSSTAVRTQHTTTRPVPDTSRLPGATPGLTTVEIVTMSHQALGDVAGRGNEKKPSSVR

Binder	Kd
YKLQGTTRLTRKRGLKLATALS [[Peptide C] nLDL]	7.7 µM
TGKRYRLKTLRTLKKTSLLEAA [[Peptide E] nLDL]	15.2 µM
GTTRLTRKRGLKL [[Peptide B] nLDL]	9.3 µM
YKLEGTTRLTRKRGLKLATALS [[Peptide D] nLDL]	3 µM
